Drawing on the NTF2 design screens of Basanta et al. (2020), this text covers protease stability score for 47 sequences.

A short description of the series: protease stability score; higher = more stable; yeast display proteolysis, trypsin and chymotrypsin.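 Also: relative to predicted unfolded state with 0 unfolded-like and 1 meaning tenfold more protease.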
In the case of “SEDEELEKVFLRILKEILTTGDEDTLRFLLDPNARMHVGDKELHGWSNVYEQINQLRIKDYELRDFKRVGDKVDFDGRNHGHFNGRDVEHRARLIIQKIDGRWFIHANIIE”, the protease stability score was 0.626. Sequence “SEDEELFKRAIEKLIHDLLTGNFEMLEHLLDPHTRVDFNGKIMHGREFVEDIRERFPNLKLELRIDDSSVINGRANIIGTLHFNVNGKFSTHEVHYHVNKFNGKWYIEEVRIK” showed a protease stability score of 1.32. The result for “SEDEELIRRFLDEFEKVIRTGNETELQRLMDPNTRFEIDGVEYHGREEVSNLLIDWAKELRLHSLHFRHIELQGEKIKIDTRENREVDGKRHVRRTEIILIKIDGRWYLHSMRYE” reads 1.98. The result for “SEDEELLHKVLNEFIHNVKTGDWEIITRLLDPHALLRVNGVNHIGREDLDRQLKKDFQEMRLHNIHVDDLKIQGEWIHVDTTLDIHINGVRVHFKAHIRVLKIDGRWIVHSREIR” reads 1.32; that for “SEDEELLKKFFERLLHALRTGDEDHLRTLIDPHARLIQGDKHYIGREQLEHSLHIILSHIRFEHHDSRREEIQGDKAIVHSHLIVRQGDKTYRLDVTFHLEKVNGRWVIREVDLN”, 1.33; that for “SEDEELLRESVRIFREAMRTGDEEFSERMIDPNVRIHIGDKEYIGREWASEWHKRLGIKHSRFRHIEIQGDFMIADVENKVGDKHIQVEYWRHKINGRWIIESIKVH”, 1.55. In turn, “SEDEELMKKVFEIFLNHLETGDWRELEKLLDPHAQLNIDGRDYHGWDKITEEMRKLGMTMHSELEHVRFQGDKIDLKGYVKVRIGDKEIRRSTRYVALKVDGRWEERSIILL” yielded a protease stability score of 1.41.

Regarding “SEDEELMRRAEDFIIETWETGDWELLHHLADPRVQLDINGRTEHGRENMNEALRRWLDDLGFDHHRVRKKHVIDGRVILDFEIFQGDKEVHLHLHNVVVNGRMKSVHFKLQDN”, the protease stability score is -0.052.

Sequence “SEDEELRQIAVEFILHILWTGDEELLYKYFDPHVRSDINGRRTHGRENMLRAIREMMRKIKGIQLTSLHITDIEIIGDYLNIDGHFRLNYDGKETDLSLKIDIFKINGKWSIHAISYR” registered a protease stability score of 2.08. Next, “SEDEELSKKAVEDILRNLETGDWETISRMADPHVRVDFNGVDIHGREVMSKMFEDELRDLGVTKVDVRLHDVDSQGDKVIVHHRVHVNGRTEEVEVHATKFNGKWVIKKMTVRVK”: 1.19; “SEDEELSKYLNEEINEILRTGDEDRWKELADPNTLLIIDGREFHGMELVIHLLHHLWKRLGIDQIHSTVEDEKVQGDKIIFHHRLEYNGRESHVIIISHKFNGRWRAKRVEVN”: 1.43. Next, “SEDEELSQKALEMVKHSSDTGDEKTTRQLMDPNYRMVIGDYELHGWELVVDFVRHARYDDLIMRRWDSQGDKIHLDGETIVNVGDKILHTRVRLIALKVNGQWKLNSVIFH”: 0.149; “SEDEELSRIISHLEVDLVHTGDEDTMRKLFDPNAKSHIHVGEYNIESHGREWISILWTDLGADHRELDEIQTDVQGDKVFVNMDLTMDVDGVSHRMFIQFVSVKVDGRWTIKEINVSVI”: 1.81; “SEDEELTNKMRHLFLHAVRTGDETVLNRLIDPNTKLHINGVDIHGREEVRTLLREMRRHEFRTRTVEIRVIDGRVEVREDVERNGVVNGQEYETRVIIIYHAVKVDGKWVWTEIRFEER”: 0.609. Next, “SEDEELVDHAWETYLRNLLTGDERTLADLIDPHVRVHINGVEFIGREELIKWLSEIRIRTIRVRRRSLINGRVEIIVDLELQVGDKHDRVTIYLIMDKFDGRWIHHTFSVE”: 0.41; “SEDEELVELMMKLIMELRKTGDEESIRRLADPNVRLDFNGRDNHGREHATKWIRDIVEHLRLRRFEIHNVEFQGNKAVVRSRIIMDWDGQDFHLDVIIILNKFNGRWFIHSQIVH”: 1.49. “SEDEELVERAIRWLESILQTGDEHVLEHFADPHVRVTVGDYDDHGRHAIHTVWRLMGVNHSEIKRKDIQVVNGVIYIHLDGVSRVNGRNFKLSIHVILEKIDGRWHVRTLHVDIK” returned a protease stability score of 1.05. Sequence “SEDEELVERALQEFLEHLETGDFETLRDQVDPNARVDIDGRERIGRHDILKHWEEWRWHEIKLKHVEFQGDFVHLDGKVRITIDGKEISTHVKILVYKVNGRWLMKELRIG” gave a protease stability score of 2.27.

“SEDEELVHHIIKLWLESLVTGDERVFEELADPNVLLVVGEKTHHGRELYSEMFEILVTEIRFHEVHIRHYRHQGDKVKLDLRIDGEIDGQKTHDKAHIILHKIDGRWQLRSMIIH” yielded a protease stability score of 1.33. The result for “SEDEELVRKATEDFINMHRTGDEDELRKMMDPDDKLRIGDKEVIGREAVITWLMEWLKKMGVNHIRFHRVHLFDGKIHVDGELHIGDKEFEIHIFALKINGRWIRESEEIK” reads 1.39.

Sequence “SEDEELVRRAVHRFIKLLETGDWDKIQNNVDPHVRLHVDGVDFIGRELFIHWVDRVKGMRHDIRDVRIEFHGDKAHIDMVTELEIGDKRRETRVHLVMRKINGRWIIESEEYRII” came in with a protease stability score of 2.64. As for “SEDEEMAKESVEHVIHALETGDFELFHKMADPSVQLDIDGREFIGWEEVRKHLEELRIERVHIRRLHIELINGQVRSTSDIEMDIRIGDYKIRTEVKVHIIIDKVNGRWRLRSMKIINH”, the protease stability score is 1.57.

The sequence “SEDEEMARRFFEHLLHLWRTGDEEILRNLVDPDTQMQIGDKHLHGRDAVEHMIRRIDHVEVRKVRMREIRVQGDYVVIHVELDGTQEVNGKRIEQHIEFTVFVHKVDGRWIWRSIYQI” had a protease stability score of 1.37. The result for “SEDEEMIRELAEIFIKNWETGDEEDRWKLMDPNARIEVNGKQNHGREEDERHSKELGFKHIEVRIKRSRIVGDKAEIDGELYMRYDGKTEHVKVHIHVQIVDGRIKIVSFKIR” reads 1.31.

“SEDEEMLRKILELLVESLLTGDWKTVARLADPHVRLEIGDKIFHGRERFIDHLKLLGIDHIEIRLRDMKIIGDKLDTEVEVVERVGDKEIHRDTTLHIRKVNGRWLIKKVILE”: the protease stability score came to 2.01. Next, “SEDEEMLRLAWEIHREILDTGDWKMFEELADPHTRIEVGEYINVGRETASKFILDNVRKIKNMRLHVHEHRTIDGKLEIHLRVNVNGQHRTLFLFASKFDGVWIITSVVVEIR”: 1.18; “SEDEEMLRRIIEELNRAHKTGNWRRIAELMDPDVRLIIGDKENHGRSVLIEWLKRIDHIEVESVDIHHIDSQGDKIILHGQVHLINVYNGVEVQENRDMTVILIKVDGRWFFHSIRVR”: 2.56; “SEDEEMNRLAIELLLRYMRTGDEHKLEELADPNVRIEVGDKESVGREVFLRFWMHLKKKLGIDVVEIELHEIKHYDGRVHSDTRFIMNVNGVEYRRDTEVVAHKVDGKWMLEHVHVE”: 0.92. The result for “SEDEEMSHNIAKMWVDALMTGDEEVLHNLADPRVRLDINGVIVHGREEFTKTMEDKLRHMRIHHINIRDIDIQGDYVRVDVRSDIFVDGKRHHVTTTLIIFKVNGRWLLHEIVVR” reads 1.95; that for “SEDEEMSKEASEWMLEIILTGDEDSLRKLLDPDYRLHVDGQEFHGRENVVKAFMEWLQRFGIKHIHLEDTRIEVQGDKVIVHERTHVDVNGKKTETELFLIALKFDGKWMTHSIEIRYE”, 2.09. Next, “SEDEEMTKKMVEELNHNLLTGDEERLKKQADPNAKVHQGEYNLVGMDQFVRLIKEWRIHHVDMRDIRIFDGVAFIDFEEDIEIDGVRIQTRTHIIILKVNGRWRFKQWEMR”: 0.862. Consider “SEDEEMTRKYFERYIRWLVTGDPKLLSELVDPNVKLIYNGRHLHGREFLVEWEMEILREARLHSVHVRDVKLFNGRLRMDVEINIEIGDKKSVVESNIVALKVNGRWVLESYEVD”, for which the protease stability score came out at 1.42. Next, “SEDEEMVEKAHQIEKESLETGDEKMILDLLDPNVRIRVDGVDFHGWEHAEKLLRELRIERVNLRSFTWQGDFLRLDGELTFDYNGKKIRTKVRIYADKVDGRWFHKSHEVT”: 1.1; “SEDEENAERFIQHWVHNMETGNEERLFELADPNVRLDVNGRDLIGREEFQKSMRWLINRVKNITVRVDKVTIQGNKLLVHTEVRVGDKHHETELIFLKVDGRWRIHEMRIV”: 1.52; “SEDEENAKFVLHELYKADETGDERKQSHMMDPNVRIIVGDKEWVGRDEVVELMHEIRVHRVHIDDFRFQGDKIEVHGTTKGEFNGKRDVYHVHWLILKIDGRWRLQSLEVR”: 1.11. The result for “SEDEENIKRHLEIWFTALKTGDEDTSRRMIDPNARFQVGDKHEHGMDSLVRELLREWKERGIELKSIRTTEIHIQGDKIFLNSRRDVLVNGVRIILETEIRFLKVDGRWLITEVSER” reads 1.22. For the sequence “SEDEENIRRIIRRFVHTFETGDEDIMRELADPHVRLIFNGQHYIGREWVVEIMSEHVKRADHTEVHIHEIHIIGDKVKVHSRLHINVDGVFRNIELRIDIMKVNGRWLIHHVEFR”, the protease stability score stood at 1.48. Next, “SEDEENVEKFVRELIHNSRTGDEEKFMSLLDPNTRIHVDGRTFHGMELASEALKLLGVKVFHVHRIKVVGEWAHVDGEVNFNGKDHKVSFHSRKVNGQWLLESVEIQ”: 1.22; “SEDEEQAEHFLRLLVEALVTGDEDKIMKLIDPNVRLEAEGHDHHGRELFVKFWMELRVKEVQIEDVKLWNGRVRFDVRFDGTFNGKRFESTSHIILTKINGKWVLKKVEMR”: 0.106; “SEDEEQAERFARELIEVLRTGNEELLTHLLDPNTMLRVNGVEHHGREAYLHYTREMRYHHIDIEHFDVQGDKLYLHNRMDGQVDGRRVDVRIRIQVEKVNGRWKLRQERHQ”: 0.524. Sequence “SEDEEQARHFVEMLEHVERTGDWRELEKLVDPHVIMDIDGVRHHGRHEVVDLSKKLGVDHVSLEHLEVQGDKAIIHFNMHVNGVEMHHHVDTRKVNGRWLNERIILK” displayed a protease stability score of 0.488. As for “SEDEEQMKRFLDHWIHFLQTGDEEESNKLADPHTRMEIGDFELHGREEYRKWFRHIIERVDHTDVRTKDSDIVNGVAIHDIEIHIEVGDKRIRRKSEMVVLKVDGRWYIQRMHFI”, the protease stability score is 0.846.

In turn, “SEDEEQSRHAFELWVRAYLTGNEEFLEKNADPNTRFIVGDKHIHGRELVFEFLKRIIDRRGMEIKDIKMRDMRVIGEKIEVDTTLHQHYNGVDFDHQIHFIMIKIDGKWKIKTIEIR” gave a protease stability score of 1.43. Next, “SEDEERARRFFEELIHVLHTGDEDSLIKMADPSVRLDFNGVEAVGREEFERMFKEIWREIRLEDLTSHHIDVFNGRIRIESKSHIEVNGVQITRDELVIVTKINGKWHLHSREVK”: 1.56; “SEDEERLRKFAEHMVNLWFTGNENELTKLIDPDTRIDIDGKELHGMELAFRVLQEHLEKLGVKHQEVRDVEIYGDKFILHWTLHVGDFTLRMEVRIVVINGRVKSMEFRTDHR”: 1.89. Next, “SEDEERSKLIIDLWEHTQSTGDESLIERLLDPDARSHWDGVHVHGRKATKIMIERIDYVERVDFKEIRTYDGRVEIHGTIDGNFNGRRREMEVIIFVVKVDGKWRIRSIRFT”: 1.3; “SEDEERTRRISKHMLELYKTGDEDTWIKEADPNTINKIHAENHRIENHGREEVHKVLVELWERLGVKHVDLKDFDMQGEKVIIFIELRAENRIVTNIIRIVIIDGKIKSIEIELRFI”: 1.21.
